From patent publication US20050282743A1, “Molecular interactions in cells” (Arbor Vita Corporation, priority 2001, published 2005)
Ends that are not written are not given here. Peptide text beside a SMILES is read from it. * marks the point of attachment. Biotin = O=C1N[C@H]2[C@H](CS[C@H]2CCCCC(=O)*)N1

Tests used:
Test in all cases: G' assay (10 uM PL peptide), results of TABLE 7 and TABLE 12
Format in all cases: binding
[1] = molecular target: T1, PDZ protein (GST-PDZ fusion) (Homo sapiens, UniProt Q86UL8)
T1 construct: made in house; host or cells: E. coli (DH5alpha, BL21 or JM109)
T1 sequence (Q86UL8 whole entry, the tested form may be a part): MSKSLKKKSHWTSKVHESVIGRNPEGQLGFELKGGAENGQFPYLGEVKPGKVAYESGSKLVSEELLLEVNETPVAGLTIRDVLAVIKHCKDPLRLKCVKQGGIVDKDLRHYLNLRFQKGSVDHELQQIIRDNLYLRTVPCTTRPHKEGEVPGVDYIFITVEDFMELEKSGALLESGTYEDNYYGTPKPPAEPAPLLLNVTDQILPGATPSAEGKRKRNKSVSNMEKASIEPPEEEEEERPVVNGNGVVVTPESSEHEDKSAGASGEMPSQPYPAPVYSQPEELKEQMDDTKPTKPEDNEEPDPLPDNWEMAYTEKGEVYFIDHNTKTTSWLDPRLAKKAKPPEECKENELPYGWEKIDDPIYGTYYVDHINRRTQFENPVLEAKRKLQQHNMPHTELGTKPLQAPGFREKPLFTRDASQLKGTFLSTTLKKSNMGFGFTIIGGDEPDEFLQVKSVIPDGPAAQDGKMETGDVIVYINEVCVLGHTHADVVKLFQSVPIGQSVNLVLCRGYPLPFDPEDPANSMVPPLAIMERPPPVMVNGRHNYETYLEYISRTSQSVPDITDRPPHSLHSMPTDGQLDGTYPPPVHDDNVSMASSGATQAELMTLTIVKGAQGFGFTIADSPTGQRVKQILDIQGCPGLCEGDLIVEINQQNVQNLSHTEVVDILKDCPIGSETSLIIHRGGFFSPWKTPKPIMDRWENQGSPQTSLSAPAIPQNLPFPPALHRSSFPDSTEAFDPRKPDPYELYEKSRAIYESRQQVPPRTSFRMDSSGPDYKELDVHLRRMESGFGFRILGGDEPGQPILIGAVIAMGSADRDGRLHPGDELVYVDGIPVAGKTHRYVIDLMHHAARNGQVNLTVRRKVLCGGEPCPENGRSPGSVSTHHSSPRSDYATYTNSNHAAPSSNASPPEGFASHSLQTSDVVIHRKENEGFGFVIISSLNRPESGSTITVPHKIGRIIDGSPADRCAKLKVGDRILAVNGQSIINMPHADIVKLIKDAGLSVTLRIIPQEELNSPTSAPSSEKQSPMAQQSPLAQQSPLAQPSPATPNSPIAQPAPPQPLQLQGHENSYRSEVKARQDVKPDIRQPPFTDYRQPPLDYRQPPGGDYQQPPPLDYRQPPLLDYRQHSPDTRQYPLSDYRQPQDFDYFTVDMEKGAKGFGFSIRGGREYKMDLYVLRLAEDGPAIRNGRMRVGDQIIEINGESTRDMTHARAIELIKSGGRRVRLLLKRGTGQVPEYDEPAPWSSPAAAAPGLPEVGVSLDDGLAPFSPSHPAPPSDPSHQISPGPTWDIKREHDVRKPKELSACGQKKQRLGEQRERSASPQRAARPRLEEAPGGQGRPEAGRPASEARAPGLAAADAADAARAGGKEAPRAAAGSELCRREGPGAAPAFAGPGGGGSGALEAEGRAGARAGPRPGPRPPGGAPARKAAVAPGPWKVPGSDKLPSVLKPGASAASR
How it was run: (§1)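 Biotinylated PL peptides at 10 uM (vs 20 uM in G^0 assay) bound to GST-PDZ fusions; PDZ protein at 5 ug/ml unless another concentration listed. Bound peptide read as A450 nm, classified 0–5 (0 = A450 0; 5 = A450 >4 repeated).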

[2] = molecular target: T2, PDZ protein (GST-PDZ fusion) (Homo sapiens, UniProt Q14160)
T2 construct: made in house; host or cells: E. coli (DH5alpha, BL21 or JM109)
T2 sequence (Q14160 whole entry, the tested form may be a part): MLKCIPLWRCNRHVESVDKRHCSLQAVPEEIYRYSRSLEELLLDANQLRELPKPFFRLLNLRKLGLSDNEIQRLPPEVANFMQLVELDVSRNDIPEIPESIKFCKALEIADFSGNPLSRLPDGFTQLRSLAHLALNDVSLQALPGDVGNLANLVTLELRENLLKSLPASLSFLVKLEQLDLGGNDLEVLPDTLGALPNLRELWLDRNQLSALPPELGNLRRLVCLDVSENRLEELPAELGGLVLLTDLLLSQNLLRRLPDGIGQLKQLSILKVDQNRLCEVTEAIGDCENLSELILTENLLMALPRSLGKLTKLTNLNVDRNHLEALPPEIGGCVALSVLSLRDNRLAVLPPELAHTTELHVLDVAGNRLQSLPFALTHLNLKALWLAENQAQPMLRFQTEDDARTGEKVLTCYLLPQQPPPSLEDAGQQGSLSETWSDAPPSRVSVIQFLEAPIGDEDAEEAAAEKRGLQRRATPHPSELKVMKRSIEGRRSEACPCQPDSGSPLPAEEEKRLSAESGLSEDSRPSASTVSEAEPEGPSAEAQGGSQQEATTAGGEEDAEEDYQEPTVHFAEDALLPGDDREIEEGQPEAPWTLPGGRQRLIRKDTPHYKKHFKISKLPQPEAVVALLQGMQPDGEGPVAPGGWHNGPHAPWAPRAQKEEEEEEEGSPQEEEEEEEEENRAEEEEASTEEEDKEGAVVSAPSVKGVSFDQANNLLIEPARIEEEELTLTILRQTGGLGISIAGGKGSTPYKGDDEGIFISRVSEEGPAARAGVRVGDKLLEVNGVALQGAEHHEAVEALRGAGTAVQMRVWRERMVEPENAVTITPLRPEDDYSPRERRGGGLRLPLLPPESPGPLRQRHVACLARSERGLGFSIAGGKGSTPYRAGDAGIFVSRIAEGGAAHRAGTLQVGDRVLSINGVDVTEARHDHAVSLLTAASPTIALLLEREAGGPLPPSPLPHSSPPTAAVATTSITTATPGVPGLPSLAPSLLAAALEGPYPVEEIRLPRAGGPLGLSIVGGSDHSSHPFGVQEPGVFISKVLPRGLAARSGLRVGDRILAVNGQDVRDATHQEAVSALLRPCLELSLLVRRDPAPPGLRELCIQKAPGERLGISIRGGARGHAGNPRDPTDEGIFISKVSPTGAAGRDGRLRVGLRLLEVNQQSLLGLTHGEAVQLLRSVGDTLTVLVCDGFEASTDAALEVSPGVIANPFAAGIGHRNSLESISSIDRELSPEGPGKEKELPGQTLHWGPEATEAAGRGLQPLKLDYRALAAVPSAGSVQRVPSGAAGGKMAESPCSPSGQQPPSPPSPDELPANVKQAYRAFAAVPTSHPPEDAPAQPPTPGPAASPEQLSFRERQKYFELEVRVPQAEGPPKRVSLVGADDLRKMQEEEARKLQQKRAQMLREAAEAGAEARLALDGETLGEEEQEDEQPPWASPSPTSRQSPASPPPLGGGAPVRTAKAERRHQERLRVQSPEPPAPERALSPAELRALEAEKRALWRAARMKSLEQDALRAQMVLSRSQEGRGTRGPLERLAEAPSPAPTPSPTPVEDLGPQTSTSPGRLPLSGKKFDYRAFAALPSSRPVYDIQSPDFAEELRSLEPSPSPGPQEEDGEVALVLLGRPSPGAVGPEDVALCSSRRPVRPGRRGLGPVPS
How it was run: as §1

[3] = molecular target: T3, PDZ protein (GST-PDZ fusion) (Homo sapiens, UniProt Q9P202); conditions: PDZ KIAA1526, PDZ Domain 1
T3 construct: made in house; host or cells: E. coli (DH5alpha, BL21 or JM109)
T3 sequence (Q9P202 1-907): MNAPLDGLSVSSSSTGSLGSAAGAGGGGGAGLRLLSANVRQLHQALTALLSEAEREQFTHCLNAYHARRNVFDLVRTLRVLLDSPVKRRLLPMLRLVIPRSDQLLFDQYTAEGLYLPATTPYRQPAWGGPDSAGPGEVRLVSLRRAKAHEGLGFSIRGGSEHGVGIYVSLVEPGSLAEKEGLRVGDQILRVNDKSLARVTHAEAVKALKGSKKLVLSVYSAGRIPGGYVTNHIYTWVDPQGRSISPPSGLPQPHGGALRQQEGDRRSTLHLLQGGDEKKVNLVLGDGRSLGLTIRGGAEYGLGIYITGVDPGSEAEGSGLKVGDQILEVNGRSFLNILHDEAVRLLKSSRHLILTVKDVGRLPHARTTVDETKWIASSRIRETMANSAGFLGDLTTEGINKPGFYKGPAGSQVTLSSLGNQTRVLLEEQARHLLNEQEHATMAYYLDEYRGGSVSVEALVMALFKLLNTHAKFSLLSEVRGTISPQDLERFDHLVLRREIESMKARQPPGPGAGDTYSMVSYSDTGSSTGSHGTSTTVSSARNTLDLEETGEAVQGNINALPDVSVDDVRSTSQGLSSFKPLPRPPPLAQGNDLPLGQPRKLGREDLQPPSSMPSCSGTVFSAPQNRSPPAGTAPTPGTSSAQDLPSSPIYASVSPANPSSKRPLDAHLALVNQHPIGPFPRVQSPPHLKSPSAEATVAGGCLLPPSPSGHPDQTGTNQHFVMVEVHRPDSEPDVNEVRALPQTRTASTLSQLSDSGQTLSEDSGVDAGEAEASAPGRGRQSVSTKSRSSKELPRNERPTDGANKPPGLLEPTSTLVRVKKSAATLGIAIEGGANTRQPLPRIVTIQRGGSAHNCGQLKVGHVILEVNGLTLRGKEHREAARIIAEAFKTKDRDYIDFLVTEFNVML
How it was run: as §1

[4] = molecular target: T4, PDZ protein (GST-PDZ fusion) (Homo sapiens, UniProt Q13796); conditions: PDZ hAPXL, PDZ Domain 1
T4 construct: made in house; host or cells: E. coli (DH5alpha, BL21 or JM109)
T4 sequence (Q13796 whole entry, the tested form may be a part): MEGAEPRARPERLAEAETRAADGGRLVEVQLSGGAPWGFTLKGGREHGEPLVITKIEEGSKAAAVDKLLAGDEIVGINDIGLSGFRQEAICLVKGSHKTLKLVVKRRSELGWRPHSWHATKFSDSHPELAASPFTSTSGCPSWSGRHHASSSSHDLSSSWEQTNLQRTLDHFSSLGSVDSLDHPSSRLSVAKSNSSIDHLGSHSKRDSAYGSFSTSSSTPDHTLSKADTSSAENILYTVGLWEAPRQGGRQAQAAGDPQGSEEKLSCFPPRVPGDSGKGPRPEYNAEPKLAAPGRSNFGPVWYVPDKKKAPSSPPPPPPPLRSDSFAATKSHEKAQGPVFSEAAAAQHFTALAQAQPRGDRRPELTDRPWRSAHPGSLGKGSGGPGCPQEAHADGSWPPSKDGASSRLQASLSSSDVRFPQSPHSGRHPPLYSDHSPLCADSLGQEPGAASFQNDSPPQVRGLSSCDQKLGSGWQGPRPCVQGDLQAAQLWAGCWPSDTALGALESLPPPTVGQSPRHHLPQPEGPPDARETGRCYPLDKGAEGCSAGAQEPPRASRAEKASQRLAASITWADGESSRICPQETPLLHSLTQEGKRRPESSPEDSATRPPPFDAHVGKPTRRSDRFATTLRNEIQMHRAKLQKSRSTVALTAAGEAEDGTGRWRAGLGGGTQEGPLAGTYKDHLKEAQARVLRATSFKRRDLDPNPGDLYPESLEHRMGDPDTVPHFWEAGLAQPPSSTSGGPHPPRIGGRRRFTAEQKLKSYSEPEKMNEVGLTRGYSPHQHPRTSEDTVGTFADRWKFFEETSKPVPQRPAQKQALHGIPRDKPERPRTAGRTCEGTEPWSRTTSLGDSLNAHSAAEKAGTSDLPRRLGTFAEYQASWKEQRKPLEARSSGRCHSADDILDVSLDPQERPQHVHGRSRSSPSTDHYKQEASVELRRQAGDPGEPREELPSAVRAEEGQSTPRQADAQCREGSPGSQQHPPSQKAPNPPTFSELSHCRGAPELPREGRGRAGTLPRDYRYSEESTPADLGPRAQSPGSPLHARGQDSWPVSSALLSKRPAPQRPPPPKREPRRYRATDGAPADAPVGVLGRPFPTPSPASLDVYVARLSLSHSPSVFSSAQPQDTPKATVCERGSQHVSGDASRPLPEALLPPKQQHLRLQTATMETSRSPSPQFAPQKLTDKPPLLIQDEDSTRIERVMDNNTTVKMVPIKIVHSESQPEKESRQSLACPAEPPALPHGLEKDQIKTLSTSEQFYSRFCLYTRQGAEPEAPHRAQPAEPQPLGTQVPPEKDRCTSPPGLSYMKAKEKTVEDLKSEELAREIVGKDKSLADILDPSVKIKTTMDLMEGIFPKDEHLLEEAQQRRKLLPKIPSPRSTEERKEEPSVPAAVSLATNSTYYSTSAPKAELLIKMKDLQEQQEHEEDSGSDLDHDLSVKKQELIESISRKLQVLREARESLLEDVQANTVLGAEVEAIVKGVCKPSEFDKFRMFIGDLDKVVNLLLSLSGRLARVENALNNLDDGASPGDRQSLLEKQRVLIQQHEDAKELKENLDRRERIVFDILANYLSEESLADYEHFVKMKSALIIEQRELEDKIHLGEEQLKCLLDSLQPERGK
How it was run: as §1

[5] = PDZ atrophin-1 interacting Protein (Atrophin-1 Inter. Prot.), PDZ Domain 1
[6] = PDZ atrophin-1 interacting Protein, PDZ Domain 1
[7] = PDZ Atrophin-1 Inter. Prot., PDZ Domain 5
[8] = PDZ atrophin-1 interacting Protein, PDZ Domain 3

Classification ([2]; PDZ KIAA0147, PDZ Domain 1)	Classification [3]	Classification [4]	Classification [1, 7]	Molecule	also measured
2 (A450 nm 1-2)	2 (A450 nm 1-2)	5 (A450 nm of 4 more than 2× repeated)		CC[C@H](C)[C@H](NC(=O)CNC(=O)[C@H](CO)NC(=O)[C@H](Cc1ccccc1)NC(=O)[C@@H](NC(=O)[C@H](CS)NC(=O)CNC(=O)CNC(=O)[C@H](C)NC(=O)[C@@H]1CCCN1C(=O)[C@@H](NC(=O)[C@@H]1CCCN1C(=O)CCCC[C@@H]1SC[C@@H]2NC(=O)N[C@@H]21)[C@@H](C)CC)[C@@H](C)O)C(=O)N[C@@H](Cc1ccccc1)C(=O)N1CCC[C@H]1C(=O)N[C@H](C(=O)N[C@@H](CC(C)C)C(=O)N[C@H](C(=O)N[C@@H](CO)C(=O)N1CCC[C@H]1C(=O)N[C@@H](CC(C)C)C(=O)O)[C@@H](C)O)[C@@H](C)O [KIA 1481] (Biotin-PIPAGGCTFSGIFPTLTSPL-OH; C-terminus assumed)	
				CC[C@H](C)[C@H](NC(=O)[C@H](CCC(=O)O)NC(=O)[C@H](CO)NC(=O)[C@H](CCC(=O)O)NC(=O)[C@H](CCCNC(=N)N)NC(=O)[C@H](CCCNC(=N)N)NC(=O)[C@H](CC(C)C)NC(=O)[C@@H]1CCCN1C(=O)[C@H](CCCNC(=N)N)NC(=O)[C@@H]1CCCN1C(=O)[C@H](CCC(=O)O)NC(=O)[C@H](CC(C)C)NC(=O)[C@@H]1CCCN1C(=O)[C@@H](NC(=O)[C@H](CO)NC(=O)[C@H](C)NC(=O)[C@H](CCC(N)=O)NC(=O)[C@H](CC(N)=O)NC(=O)[C@H](Cc1c[nH]cn1)NC(=O)[C@H](CC(C)C)NC(=O)CCCC[C@@H]1SC[C@@H]2NC(=O)N[C@@H]21)C(C)C)C(=O)O [Kir2.1 (inwardly rect. K+ channel)] (Biotin-LHNQASVPLEPRPLRRESEI-OH; C-terminus assumed)	Classification [1, 6]: 1 (A450 nm 0-1)
		2 (A450 nm 1-2)	1 (A450 nm 0-1)	CC[C@H](C)[C@H](NC(=O)[C@H](CO)NC(=O)[C@H](CCC(=O)O)NC(=O)[C@H](Cc1ccc(O)cc1)NC(=O)[C@H](CC(=O)O)NC(=O)[C@H](CC(N)=O)NC(=O)[C@H](CCC(=O)O)NC(=O)[C@H](CCCCN)NC(=O)CCCC[C@@H]1SC[C@@H]2NC(=O)N[C@@H]21)C(=O)N[C@@H](CO)C(=O)N[C@@H](CC(=O)O)C(=O)N[C@@H](CC(C)C)C(=O)N[C@@H](CCC(N)=O)C(=O)N[C@@H](CCC(N)=O)C(=O)NCC(=O)N[C@@H](CCCNC(=N)N)C(=O)N[C@@H](CC(=O)O)C(=O)N[C@H](C(=O)N[C@H](C(=O)N[C@@H](CCCNC(=N)N)C(=O)N[C@@H](CC(C)C)C(=O)O)[C@@H](C)O)[C@@H](C)CC [PAG] (Biotin-KENDYESISDLQQGRDITRL-OH; C-terminus assumed)	
			1 (A450 nm 0-1)	CC[C@H](C)[C@H](NC(=O)[C@H](Cc1c[nH]cn1)NC(=O)[C@H](C)NC(=O)[C@H](C)NC(=O)[C@H](CO)NC(=O)[C@@H]1CCCN1C(=O)[C@H](CCCNC(=N)N)NC(=O)[C@H](CC(=O)O)NC(=O)[C@H](CCCCN)NC(=O)[C@@H]1CCCN1C(=O)[C@H](CC(=O)O)NC(=O)[C@H](CCC(=O)O)NC(=O)CCCC[C@@H]1SC[C@@H]2NC(=O)N[C@@H]21)C(=O)N[C@H](C(=O)N[C@@H](CCC(=O)O)C(=O)N[C@@H](C)C(=O)N[C@@H](CC(C)C)C(=O)N[C@@H](CCC(=O)O)C(=O)N[C@H](C(=O)N[C@@H](CC(=O)O)C(=O)N[C@H](C(=O)O)C(C)C)[C@@H](C)O)C(C)C [PDZ-binding kinase (PBK)] (Biotin-EDPKDRPSAAHIVEALETDV-OH; C-terminus assumed)	
	4 (A450 nm 3-4)	1 (A450 nm 0-1)	1 (A450 nm 0-1)	A2AA_HUMAN (modified) (Biotin-HDFRRAFKKILARGDRKRIV; not fully specified)	Classification ([1]; PDZ Atrophin-1 Inter. Prot., PDZ Domain 6): 1 (A450 nm 0-1)
		3 (A450 nm 2-3)		A2AC_HUMAN (Modified) (Biotin-DFRPSFKHILFRRARRGFRQ; not fully specified)	
		2 (A450 nm 1-2)		ALVLIAFCIIRRRPSAYQAL (Biotin-ALVLIAFCIIRRRPSAYQAL) [CD68]	
1 (A450 nm 0-1)				APC—adenomatous polyposis coli protein (ESSGTQSPKRHSGSYLVTSV)	
		3 (A450 nm 2-3)	2 (A450 nm 1-2)	ELLQFCRTPNPALKNGQYWV (Biotin-ELLQFCRTPNPALKNGQYWV)	Classification [1, 6]: 1 (A450 nm 0-1); Classification [1, 8]: 2 (A450 nm 1-2)
1 (A450 nm 0-1)				GGGGGSGGGGGSGIESVKI [GLUR2 (glutamate receptor 2-modified)]	
1 (A450 nm 0-1)		2 (A450 nm 1-2)	1 (A450 nm 0-1)	LASKSAEEGKQIPDSLSTDL (Biotin-LASKSAEEGKQIPDSLSTDL) [Dock2]	
	1 (A450 nm 0-1)	1 (A450 nm 0-1)		PPATPSPRLALPAHHNATRL (Biotin-PPATPSPRLALPAHHNATRL) [Na+/Pi cotransporter 2]	
	2 (A450 nm 1-2)		5 (A450 nm of 4 more than 2× repeated)	PYSELNYETSHYPASPDSWV (Biotin-PYSELNYETSHYPASPDSWV) [catenin - delta 2]	Classification [1, 8]: 1 (A450 nm 0-1); Classification ([2]; PDZ KIAA0147, PDZ Domain 2): 3 (A450 nm 2-3); Classification ([2]; PDZ KIAA0147, PDZ Domain 4): 1 (A450 nm 0-1)
1 (A450 nm 0-1)			1 (A450 nm 0-1)	QATSRNGHSARQHVVADTEL (Biotin-QATSRNGHSARQHVVADTEL) [CD34]	
	1 (A450 nm 0-1)	2 (A450 nm 1-2)		VHDAESSDEDGYDWGPATDL (Biotin-VHDAESSDEDGYDWGPATDL) [zona occludens 3 (ZO-3)]	

Molecule	Classification ([2]; PDZ KIAA0147, PDZ Domain 1)	Classification [3]	Classification [4]	Classification [1, 7]	also measured
CC(C)C[C@H](NC(=O)[C@H](CCCNC(=N)N)NC(=O)CNC(=O)CNC(=O)[C@H](CCCNC(=N)N)NC(=O)[C@H](C)NC(=O)[C@@H]1CCCN1C(=O)[C@H](CCCNC(=N)N)NC(=O)CNC(=O)CNC(=O)[C@@H](NC(=O)[C@H](C)NC(=O)CCCC[C@@H]1SC[C@@H]2NC(=O)N[C@@H]21)C(C)C)C(=O)N[C@@H](CCC(N)=O)C(=O)NCC(=O)N[C@@H](CCCNC(=N)N)C(=O)N[C@@H](CCCNC(=N)N)C(=O)N[C@@H](CCC(N)=O)C(=O)N[C@H](C(=O)N[C@@H](CCC(N)=O)C(=O)N[C@H](C(=O)O)C(C)C)[C@@H](C)O [HPV E6 58 (modified)] (Biotin-AVGGRPARGGRLQGRRQTQV-OH; C-terminus assumed)	2 (A450 nm 1-2)	1 (A450 nm 0-1)			Classification [1, 5]: 5 (A450 nm of 4 more than 2× repeated)
CC[C@H](C)[C@H](NC(=O)[C@H](CCC(N)=O)NC(=O)CCCC[C@@H]1SC[C@@H]2NC(=O)N[C@@H]21)C(=O)N[C@@H](CO)C(=O)N1CCC[C@H]1C(=O)NCC(=O)NCC(=O)N[C@@H](CC(C)C)C(=O)N[C@@H](CCC(=O)O)C(=O)N1CCC[C@H]1C(=O)N1CCC[C@H]1C(=O)N[C@@H](CO)C(=O)N[C@@H](CCC(=O)O)C(=O)N[C@@H](CCCCN)C(=O)N[C@@H](Cc1c[nH]cn1)C(=O)N[C@@H](Cc1ccccc1)C(=O)N[C@@H](CCCNC(=N)N)C(=O)N[C@@H](CCC(=O)O)C(=O)N[C@H](C(=O)N[C@@H](CCC(=O)O)C(=O)N[C@H](C(=O)O)C(C)C)[C@@H](C)O [Tax]	5 (A450 nm of 4 more than 2× repeated)	3 (A450 nm 2-3)		3 (A450 nm 2-3)	Classification [1, 5]: 5 (A450 nm of 4 more than 2× repeated); Classification ([1]; PDZ atrophin-1 interacting Protein, PDZ Domain 2): 1 (A450 nm 0-1); Classification [1, 8]: 1 (A450 nm 0-1); Classification ([2]; PDZ KIAA0147, PDZ Domain 2): 5 (A450 nm of 4 more than 2× repeated); Classification ([2]; PDZ KIAA0147, PDZ Domain 3): 1 (A450 nm 0-1); Classification ([2]; PDZ KIAA0147, PDZ Domain 4): 1 (A450 nm 0-1)
LNETTETQRTLLNGDLQTSI (Biotin-LNETTETQRTLLNGDLQTSI) [SSTR2 (somatostatin recepor 2)]		1 (A450 nm 0-1)			
